Drawing on patent US5607847, this text covers 50% neutralization by the p24 assay and ID50 (reverse transcriptase assay) for one molecule.

This test concerns the target gp120 of HIV-1 strain IIIB (HIV-1 IIIB).

B1: murine monoclonal antibody NM-01 (antibody, V domains shown)
VH: QIQLKESGPAVIKPSQSLSLTCIVSGFSITSSSYCWHWIRQPPGKGLEWMGRICYEGSIDYSPSIKSRSTISRDTSLNRFFIQLSSVTNEDTAMYYCSRENHGTTTSMDYWGQGTSVTVSS
VL: DIVLTQSPASLAVSLGQRATISCRASESVDSYGNSFMHWYQQKPGQSPKLLIYVASNLESGVPARFSGSGSRTDFTLTIDPVEADDAATYYCQQNNEDPLTFGAGTKLELK
B1 had a 50% neutralization by the p24 assay of 0.15 µg/mL and an ID50 (reverse transcriptase assay) of 0.2 µg/mL.
